This note sets out measurements from IntAct's records for PubMed 25910212.

The chains are these.
B1: ATP synthase mitochondrial F1 complex assembly factor 2 (Homo sapiens), Q8N5M1 (parent)
chain: MWRSCLRLRDGGRRLLNRPAGGPSASMSPGPTIPSPARAYAPPTERKRFYQNVSITQGEGGFEINLDHRKLKTPQAKLFTVPSEALAIAVATEWDSQQDTIKYYTMHLTTLCNTSLDNPTQRNKDQLIRAAVKFLDTDTICYRVEEPETLVELQRNEWDPIIEWAEKRYGVEISSSTSIMGPSIPAKTREVLVSHLASYNTWALQGIEFVAAQLKSMVLTLGLIDLRLTVEQAVLLSRLEEEYQIQKWGNIEWAHDYELQELRARTAAGTLFIHLCSESTTVKHKLLKE
B2: LHFPL tetraspan subfamily member 5 protein (Homo sapiens), Q8TAF8 (parent)
chain: MVKLLPAQEAAKIYHTNYVRNSRAVGVMWGTLTICFSVLVMALFIQPYWIGDSVNTPQAGYFGLFSYCVGNVLSSELICKGGPLDFSSIPSRAFKTAMFFVALGMFLIIGSIICFSLFFICNTATVYKICAWMQLAAATGLMIGCLVYPDGWDSSEVRRMCGEQTGKYTLGHCTIRWAFMLAILSIGDALILSFLAFVLGYRQDKLLPDDYKADGTEEV
partner: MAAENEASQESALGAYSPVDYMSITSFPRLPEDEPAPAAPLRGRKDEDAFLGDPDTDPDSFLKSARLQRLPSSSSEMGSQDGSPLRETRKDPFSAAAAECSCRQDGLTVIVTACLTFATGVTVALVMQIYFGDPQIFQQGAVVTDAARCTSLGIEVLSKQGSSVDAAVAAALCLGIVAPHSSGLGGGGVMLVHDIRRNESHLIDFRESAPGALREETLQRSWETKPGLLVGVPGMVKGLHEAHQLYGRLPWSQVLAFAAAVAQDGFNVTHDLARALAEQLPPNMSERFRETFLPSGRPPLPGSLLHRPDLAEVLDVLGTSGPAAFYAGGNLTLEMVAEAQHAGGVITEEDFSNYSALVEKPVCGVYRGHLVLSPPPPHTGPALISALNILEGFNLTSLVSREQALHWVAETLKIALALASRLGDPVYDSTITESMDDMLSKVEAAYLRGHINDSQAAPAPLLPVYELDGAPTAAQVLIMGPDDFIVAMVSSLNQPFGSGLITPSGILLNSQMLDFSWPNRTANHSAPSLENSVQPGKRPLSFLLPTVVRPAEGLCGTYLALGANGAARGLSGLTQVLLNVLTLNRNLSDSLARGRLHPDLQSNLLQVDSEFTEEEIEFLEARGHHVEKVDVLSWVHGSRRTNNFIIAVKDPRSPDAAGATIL
B3: Estrogen receptor beta (Homo sapiens), Q92731-3 (parent)
chain: MDIKNSPSSLNSPSSYNCSQSILPLEHGSIYIPSSYVDSHHEYPAMTFYSPAVMNYSIPSNVTNLEGGPGRQTTSPNVLWPTPGHLSPLVVHRQLSHLYAEPQKSPWCEARSLEHTLPVNRETLKRKVSGNRCASPVTGPGSKRDAHFCAVCSDYASGYHYGVWSCEGCKAFFKRSIQGHNDYICPATNQCTIDKNRRKSCQACRLRKCYEVGMVKCGSRRERCGYRLVRRQRSADEQLHCAGKAKRSGGHAPRVRELLLDALSPEQLVLTLLEAEPPHVLISRPSAPFTEASMMMSLTKLADKELVHMISWAKKIPGMRGNA
partner: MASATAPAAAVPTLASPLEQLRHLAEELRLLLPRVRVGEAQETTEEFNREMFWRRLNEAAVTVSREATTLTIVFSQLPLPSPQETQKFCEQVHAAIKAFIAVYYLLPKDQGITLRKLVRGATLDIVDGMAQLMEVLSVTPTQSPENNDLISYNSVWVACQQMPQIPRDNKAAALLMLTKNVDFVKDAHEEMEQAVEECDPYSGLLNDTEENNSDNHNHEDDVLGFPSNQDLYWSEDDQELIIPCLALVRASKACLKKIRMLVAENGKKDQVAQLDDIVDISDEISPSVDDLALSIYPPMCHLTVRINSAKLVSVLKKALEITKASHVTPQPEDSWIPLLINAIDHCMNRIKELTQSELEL

Variants of B1 are the subject of the first assay. The following applies: with ikzf3_human IKZF3, Q9UKT9.
ikzf3_human IKZF3, Q9UKT9, sequence (Q9UKT9 whole entry): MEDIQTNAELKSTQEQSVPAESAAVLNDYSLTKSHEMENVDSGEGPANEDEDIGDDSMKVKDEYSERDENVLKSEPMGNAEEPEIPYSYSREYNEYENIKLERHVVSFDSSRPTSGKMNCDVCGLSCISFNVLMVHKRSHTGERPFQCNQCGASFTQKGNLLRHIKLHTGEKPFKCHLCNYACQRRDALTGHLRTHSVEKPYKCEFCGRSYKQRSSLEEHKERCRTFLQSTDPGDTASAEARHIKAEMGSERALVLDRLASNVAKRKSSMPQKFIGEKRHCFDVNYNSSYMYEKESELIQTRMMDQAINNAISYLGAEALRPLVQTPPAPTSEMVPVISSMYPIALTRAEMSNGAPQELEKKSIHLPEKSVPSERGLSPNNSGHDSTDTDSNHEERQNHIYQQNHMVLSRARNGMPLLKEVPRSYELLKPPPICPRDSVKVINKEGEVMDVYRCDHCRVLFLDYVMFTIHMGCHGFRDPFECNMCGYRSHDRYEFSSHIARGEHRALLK
Turning to MWRSCLRLRDGGRRLLNRPAGGPSASMSPGPTIPSPARAYAPPTERKRFYQNVSITQGEGGFEINLDHRKLKTPQAKLFTVPSEALAIAVATERDSQQDTIKYYTMHLTTLCNTSLDNPTQRNKDQLIRAAVKFLDTDTICYRVEEPETLVELQRNEWDPIIEWAEKRYGVEISSSTSIMGPSIPAKTREVLVSHLASYNTWALQGIEFVAAQLKSMVLTLGLIDLRLTVEQAVLLSRLEEEYQIQKWGNIEWAHDYELQELRARTAAGTLFIHLCSESTTVKHKLLKE [W94R], the “effect of a mutation on the interaction” value was “disrupting interaction strength”.

The variants in the next assay derive from B1. The following applies: with pak5_human PAK5, Q9P286.
pak5_human PAK5, Q9P286, sequence (Q9P286 whole entry, looked up): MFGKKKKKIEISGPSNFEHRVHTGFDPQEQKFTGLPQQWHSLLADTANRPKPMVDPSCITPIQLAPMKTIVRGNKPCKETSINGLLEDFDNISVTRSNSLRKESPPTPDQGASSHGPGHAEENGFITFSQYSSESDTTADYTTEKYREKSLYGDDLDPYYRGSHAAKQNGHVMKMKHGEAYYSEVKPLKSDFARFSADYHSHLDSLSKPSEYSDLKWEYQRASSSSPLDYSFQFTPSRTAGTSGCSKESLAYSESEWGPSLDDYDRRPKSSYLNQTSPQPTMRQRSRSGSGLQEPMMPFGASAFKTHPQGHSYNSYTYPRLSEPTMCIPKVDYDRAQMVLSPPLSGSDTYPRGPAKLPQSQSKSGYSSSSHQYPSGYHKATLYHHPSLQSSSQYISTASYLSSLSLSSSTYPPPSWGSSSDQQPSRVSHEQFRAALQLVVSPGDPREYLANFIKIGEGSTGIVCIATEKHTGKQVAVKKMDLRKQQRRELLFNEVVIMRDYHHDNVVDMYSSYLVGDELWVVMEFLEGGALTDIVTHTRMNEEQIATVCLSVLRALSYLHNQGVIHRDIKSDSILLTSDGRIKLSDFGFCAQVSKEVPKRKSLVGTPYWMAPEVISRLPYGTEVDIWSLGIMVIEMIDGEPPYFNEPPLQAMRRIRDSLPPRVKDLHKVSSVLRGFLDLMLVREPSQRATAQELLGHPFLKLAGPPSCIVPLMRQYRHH
As to MWRSCLRLRDGGRRLLNRPAGGPSASMSPGPTIPSPARAYAPPTERKRFYQNVSITQGEGGFEINLDHRKLKTPQAKLFTVPSEALAIAVATERDSQQDTIKYYTMHLTTLCNTSLDNPTQRNKDQLIRAAVKFLDTDTICYRVEEPETLVELQRNEWDPIIEWAEKRYGVEISSSTSIMGPSIPAKTREVLVSHLASYNTWALQGIEFVAAQLKSMVLTLGLIDLRLTVEQAVLLSRLEEEYQIQKWGNIEWAHDYELQELRARTAAGTLFIHLCSESTTVKHKLLKE [W94R], the “effect of a mutation on the interaction” value is recorded as “disrupting interaction strength”.

A further assay covers variants of B1. The following applies: with maga6_human MAGEA6, P43360.
maga6_human MAGEA6, P43360, sequence (P43360 whole entry): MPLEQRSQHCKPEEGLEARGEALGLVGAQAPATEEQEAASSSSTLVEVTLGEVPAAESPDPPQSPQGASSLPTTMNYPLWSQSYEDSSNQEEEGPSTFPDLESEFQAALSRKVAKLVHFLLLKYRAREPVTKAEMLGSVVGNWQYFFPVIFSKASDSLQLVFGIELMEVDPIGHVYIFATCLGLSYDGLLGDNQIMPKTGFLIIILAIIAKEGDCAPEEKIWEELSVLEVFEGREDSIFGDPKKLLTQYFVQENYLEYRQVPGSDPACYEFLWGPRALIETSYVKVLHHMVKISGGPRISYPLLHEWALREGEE
As for MWRSCLRLRDGGRRLLNRPAGGPSASMSPGPTIPSPARAYAPPTERKRFYQNVSITQGEGGFEINLDHRKLKTPQAKLFTVPSEALAIAVATERDSQQDTIKYYTMHLTTLCNTSLDNPTQRNKDQLIRAAVKFLDTDTICYRVEEPETLVELQRNEWDPIIEWAEKRYGVEISSSTSIMGPSIPAKTREVLVSHLASYNTWALQGIEFVAAQLKSMVLTLGLIDLRLTVEQAVLLSRLEEEYQIQKWGNIEWAHDYELQELRARTAAGTLFIHLCSESTTVKHKLLKE [W94R], the “effect of a mutation on the interaction” value is “disrupting interaction strength”.

Variants of B1 are the subject of another assay. The following applies: with lzts2_human LZTS2, Q9BRK4.
lzts2_human LZTS2, Q9BRK4, sequence (Q9BRK4 whole entry): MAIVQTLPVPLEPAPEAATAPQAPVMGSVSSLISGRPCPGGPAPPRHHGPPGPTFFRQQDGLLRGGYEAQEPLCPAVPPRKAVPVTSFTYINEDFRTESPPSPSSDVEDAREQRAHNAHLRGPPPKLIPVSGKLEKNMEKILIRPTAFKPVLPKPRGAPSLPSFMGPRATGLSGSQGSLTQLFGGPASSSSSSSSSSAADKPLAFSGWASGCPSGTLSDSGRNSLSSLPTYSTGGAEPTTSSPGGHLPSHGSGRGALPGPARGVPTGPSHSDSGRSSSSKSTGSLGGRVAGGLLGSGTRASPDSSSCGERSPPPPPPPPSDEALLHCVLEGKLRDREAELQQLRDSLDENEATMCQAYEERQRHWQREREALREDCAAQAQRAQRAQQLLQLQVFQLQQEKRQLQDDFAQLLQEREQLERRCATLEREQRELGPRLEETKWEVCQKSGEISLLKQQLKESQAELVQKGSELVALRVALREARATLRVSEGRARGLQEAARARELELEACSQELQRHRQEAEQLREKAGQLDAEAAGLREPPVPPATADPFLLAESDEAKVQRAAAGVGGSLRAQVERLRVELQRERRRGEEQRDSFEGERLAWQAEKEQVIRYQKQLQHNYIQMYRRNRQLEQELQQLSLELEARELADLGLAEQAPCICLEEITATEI
Consider MWRSCLRLRDGGRRLLNRPAGGPSASMSPGPTIPSPARAYAPPTERKRFYQNVSITQGEGGFEINLDHRKLKTPQAKLFTVPSEALAIAVATERDSQQDTIKYYTMHLTTLCNTSLDNPTQRNKDQLIRAAVKFLDTDTICYRVEEPETLVELQRNEWDPIIEWAEKRYGVEISSSTSIMGPSIPAKTREVLVSHLASYNTWALQGIEFVAAQLKSMVLTLGLIDLRLTVEQAVLLSRLEEEYQIQKWGNIEWAHDYELQELRARTAAGTLFIHLCSESTTVKHKLLKE [W94R], for which the “effect of a mutation on the interaction” value is recorded as “disrupting interaction strength”.

A further assay covers variants of B1. The following applies: with KRT40, Q6A162.
KRT40, Q6A162, sequence (Q6A162 whole entry): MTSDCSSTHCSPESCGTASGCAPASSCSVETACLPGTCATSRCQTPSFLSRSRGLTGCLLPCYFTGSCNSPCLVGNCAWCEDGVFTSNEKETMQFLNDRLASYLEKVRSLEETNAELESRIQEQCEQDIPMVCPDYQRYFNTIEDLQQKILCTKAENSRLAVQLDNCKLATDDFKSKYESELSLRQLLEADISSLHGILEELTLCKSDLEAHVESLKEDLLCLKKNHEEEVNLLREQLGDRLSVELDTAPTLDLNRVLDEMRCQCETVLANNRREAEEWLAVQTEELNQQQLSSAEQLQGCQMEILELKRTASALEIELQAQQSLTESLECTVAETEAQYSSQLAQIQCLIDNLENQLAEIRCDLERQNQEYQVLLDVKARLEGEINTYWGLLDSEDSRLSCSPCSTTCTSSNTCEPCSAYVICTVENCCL
In the case of MWRSCLRLRDGGRRLLNRPAGGPSASMSPGPTIPSPARAYAPPTERKRFYQNVSITQGEGGFEINLDHRKLKTPQAKLFTVPSEALAIAVATERDSQQDTIKYYTMHLTTLCNTSLDNPTQRNKDQLIRAAVKFLDTDTICYRVEEPETLVELQRNEWDPIIEWAEKRYGVEISSSTSIMGPSIPAKTREVLVSHLASYNTWALQGIEFVAAQLKSMVLTLGLIDLRLTVEQAVLLSRLEEEYQIQKWGNIEWAHDYELQELRARTAAGTLFIHLCSESTTVKHKLLKE [W94R], the “effect of a mutation on the interaction” value is “disrupting interaction strength”.

The variants in the next assay derive from B1. The following applies: with rpia_human RPIA.
For MWRSCLRLRDGGRRLLNRPAGGPSASMSPGPTIPSPARAYAPPTERKRFYQNVSITQGEGGFEINLDHRKLKTPQAKLFTVPSEALAIAVATERDSQQDTIKYYTMHLTTLCNTSLDNPTQRNKDQLIRAAVKFLDTDTICYRVEEPETLVELQRNEWDPIIEWAEKRYGVEISSSTSIMGPSIPAKTREVLVSHLASYNTWALQGIEFVAAQLKSMVLTLGLIDLRLTVEQAVLLSRLEEEYQIQKWGNIEWAHDYELQELRARTAAGTLFIHLCSESTTVKHKLLKE [W94R], the “effect of a mutation on the interaction” value was “disrupting interaction strength”.

In a further assay the parent is B1. The following applies: with ews_human EWSR1, Q01844.
ews_human EWSR1, Q01844, sequence (Q01844 whole entry): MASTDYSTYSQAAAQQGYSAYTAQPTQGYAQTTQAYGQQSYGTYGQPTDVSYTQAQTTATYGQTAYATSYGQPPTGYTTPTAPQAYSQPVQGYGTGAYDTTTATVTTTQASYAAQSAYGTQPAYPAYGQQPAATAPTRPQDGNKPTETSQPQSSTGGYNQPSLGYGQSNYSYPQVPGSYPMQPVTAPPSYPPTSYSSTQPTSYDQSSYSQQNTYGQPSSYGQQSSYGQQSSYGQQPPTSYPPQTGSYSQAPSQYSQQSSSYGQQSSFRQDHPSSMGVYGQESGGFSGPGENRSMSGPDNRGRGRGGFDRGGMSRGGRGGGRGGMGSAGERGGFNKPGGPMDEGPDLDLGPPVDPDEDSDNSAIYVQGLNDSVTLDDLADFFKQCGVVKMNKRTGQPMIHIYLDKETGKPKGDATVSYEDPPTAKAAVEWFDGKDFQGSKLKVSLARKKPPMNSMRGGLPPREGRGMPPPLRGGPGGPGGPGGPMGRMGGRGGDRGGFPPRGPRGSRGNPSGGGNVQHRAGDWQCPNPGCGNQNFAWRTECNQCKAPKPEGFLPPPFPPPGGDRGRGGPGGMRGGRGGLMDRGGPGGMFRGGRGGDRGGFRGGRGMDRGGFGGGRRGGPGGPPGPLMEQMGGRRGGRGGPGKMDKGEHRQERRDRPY
As to MWRSCLRLRDGGRRLLNRPAGGPSASMSPGPTIPSPARAYAPPTERKRFYQNVSITQGEGGFEINLDHRKLKTPQAKLFTVPSEALAIAVATERDSQQDTIKYYTMHLTTLCNTSLDNPTQRNKDQLIRAAVKFLDTDTICYRVEEPETLVELQRNEWDPIIEWAEKRYGVEISSSTSIMGPSIPAKTREVLVSHLASYNTWALQGIEFVAAQLKSMVLTLGLIDLRLTVEQAVLLSRLEEEYQIQKWGNIEWAHDYELQELRARTAAGTLFIHLCSESTTVKHKLLKE [W94R], the “effect of a mutation on the interaction” value was “disrupting interaction strength”.

In a further assay the parent is B2. The following applies: with ggt7_human GGT7, Q9UJ14.
Regarding MVKLLPAQEAAKIYHTNYVRNSRAVGVMWGTLTICFSVLVMALFIQPYWIGDSVNTPQAGYFGLFSYCVGNVLSSELICKGGPLDFSSIPSRAFKTAMFFVALGMFLIIGSIICFSLFFICNTATVYKICAWMQLAAATGLMIGCLVYPDGWDSSEVRRMCGEQMGKYTLGHCTIRWAFMLAILSIGDALILSFLAFVLGYRQDKLLPDDYKADGTEEV [T165M], the “effect of a mutation on the interaction” value was “disrupting interaction strength”.

Consider MVKLLPAQEAAKIYHTNYVRNSRAVGVMWGTLTICFSVLVMALFIQPYWIGDSVNTPQAGYFGLFSYCVGNVLSSELICKGGPLDFSSIPSRAFKTAMFFVALGMFLIIGSIICFSLFFICNTATVCKICAWMQLAAATGLMIGCLVYPDGWDSSEVRRMCGEQTGKYTLGHCTIRWAFMLAILSIGDALILSFLAFVLGYRQDKLLPDDYKADGTEEV [Y127C], for which the “effect of a mutation on the interaction” value is “disrupting interaction strength”.

In the next assay the parent is B3. The following applies: with ccdb1_human CCNDBP1, O95273.
For the variant MDIKNSPSSLNSPSSYNCSQSILPLEHGSIYIPSSYVDSHHEYPAMTFYSPAVMNYSIPSNVTNLEGGPGRQTTSPNVLWPTPGHLSPLVVHRQLSHLYAEPQKSPWCEARSLEHTLPVNRETLKRKVSGNRCASPVTGPGSKRDAHFCAVCSDYASGYHYGVWSCEGCKAFFKRSIQGHNDYICPATNQCTIDKNRRKSCQACRLRKCYEVGMVKCGSRRERCGYRLVRRQRSADEQLHCAGKAKRSGGHAPRVRELLLDALSPEQLVLTLLEAEPPHVLISRPSAPLTEASMMMSLTKLADKELVHMISWAKKIPGMRGNA [F289L], the “effect of a mutation on the interaction” value is on record as “causing an interaction”.
